B3: DFB-1 (designed binder)
chain: NTHFIVVHGSEDAAQLAEELVREISKKEGTEVRFEKKDGLLSIEVKNLSEERQREIQKALQLVQDVANAERVVRERPGSNLAKKALEIILRAAEELAKLDLKASLKAAVRAAEKVVREQPGSNLAKKALEIILRAAEELAKLPDPEALKEAVKAAEKVVREQPGSNLAKKALEIILRAAAALANLPDPESRKEADKAADKVRREQPGSELAVVAAIISAVARMGVKMELHPSGNEVKVVIKGLHIKQQRQLYRDVREAAKKAGVEVEIEVEGDTVTIVVRGGSHHWGSGSHHHHHH
notes: Bivalent connector

Legend:
[1] = molecular target: T1, DFB0; experiment: SEC of mixed components; linear tetramer listed in Table 6, neighbours in the chain
T1 construct: Bivalent connector
T1 chain: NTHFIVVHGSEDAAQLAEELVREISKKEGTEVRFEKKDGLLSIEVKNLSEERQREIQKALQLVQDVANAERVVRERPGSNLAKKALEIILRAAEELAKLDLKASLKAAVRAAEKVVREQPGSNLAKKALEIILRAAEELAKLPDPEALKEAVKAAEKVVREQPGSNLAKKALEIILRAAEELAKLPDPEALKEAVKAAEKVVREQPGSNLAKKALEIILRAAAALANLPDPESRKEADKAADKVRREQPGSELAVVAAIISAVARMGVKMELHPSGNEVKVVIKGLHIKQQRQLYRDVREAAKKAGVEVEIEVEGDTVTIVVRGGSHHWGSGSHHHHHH
Method: (§1) Complexes and individual components were diluted in 20 mM Tris pH 8.0, 100 mM NaCl. After o/n equilibration of the mixtures at room temperature or 4 degrees C., 500 ul of sample was injected onto a Superdex™ 200 10/300 increase GL (dimers, linear assemblies) or Superose™ 6 increase 10/300 GL (symmetric assemblies) (all columns from GE healthcare) using the absorbance at 230 nm or 473 nm (for GFP tagged components) as read-out. Dimers were mixed at monomer concentrations of 5 μM or higher. Trimer and ABCD tetramer mixtures contained 5 μM of the bivalent connector, and 7.5 μM of each terminal cap (lower absolute concentrations with the same ratios were used for some trimers). ABCA tetramer mixtures contained 5 μM per bivalent connector and 15 μM terminal cap. The hexamer mixture contained 3 μM of components C and D, 3.6 μM of B and E, and 4.4 μM of A and F. The branched assembly shown in FIG. 4A contained 2.8 μM of the trivalent connector and 4 μM of each cap. For the exchange experiment shown in FIG. 5A, the ABC trimer was preincubated at concentrations of 6 μM B and 9 μM each of A and C. C′ was then added to reach a final concentration of 2 μM B, 3 μM each of A and C, and 6 μM C′.

[2] = molecular target: B3; experiment: as above
Method: as §1

[3] = molecular target: the molecule itself; experiment: SEC titration (self-association)
[4] = molecular target: T2, 101B62; experiment: SEC of mixed components; linear tetramer listed in Table 6, neighbours in the chain
T2 construct: also called LHD101B62
T2 chain: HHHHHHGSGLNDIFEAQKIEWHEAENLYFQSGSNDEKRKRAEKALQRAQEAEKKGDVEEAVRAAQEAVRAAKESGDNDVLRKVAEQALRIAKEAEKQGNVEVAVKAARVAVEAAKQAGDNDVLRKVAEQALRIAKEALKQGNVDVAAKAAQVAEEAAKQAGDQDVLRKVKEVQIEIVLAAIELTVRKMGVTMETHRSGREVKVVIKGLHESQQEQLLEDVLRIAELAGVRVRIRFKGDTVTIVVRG
Method: as §1

[5] = molecular target: the molecule itself; experiment: SEC and native MS (self-association)
[6] = molecular target: the molecule itself; experiment: BLI conditions (self-association)

B1: DFA-1 (designed binder)
chain: TTNFHLINGSEEARQLIEKAVRAISKKEGTEVHFEKSDGTLEIRVKNLHEKREREIKKVIELILEVAAAERIVRERPGSNLAKKALEIILRAAEELAKADVDAALEAAVRAAEKVVREQPGSNLAKKALEIILRAAEELAKLPDPEALKEAVKAAEKVVREQPGSNLAKKALEIILRAAAALANLPDPESRKEADKAADKVRREQPGSELAVVAAIISAVARMGVKMELHPSGNEVKVVIKGLHIKQQRQLYRDVREAAKKAGVEVEIEVEGDTVTIVVRGGSHHWGSGSHHHHHH
notes: Bivalent connector
[1]
  binding result: binds
[2]
  binding result: binds

B2: LHD101 chainB (designed binder)
chain: GRQEKVLKSIEETVRKMGVTMETHRSGNEVKVVIKGLHESQQEQLLEDVLRTAEKQGVRVRIRFKGDTVTIVVRE
notes: also called LHD101B
[3]
  binding result: no binding (tested: above 100 µM)

## B3
[4]
  binding result: binds

B4: RingA (designed binder)
chain: GSSIFLLSNVSEDAAQLAEELVREISKKEGTEVRFEKDDGFLTIEVKNLSEERLREIAKALQLIVDVANAERVVRERPGSNLAKKALEIILRAAEELAKLDLKASLKAAVRAALKVVAEQPGSNLAKKALEIIQRAAEELAKLPDPEAQKEAQLAAELVRAAELAKSPDPEDLKEAVRLAEEVVRERPGSNLAKAALAIILRAAEELAKLPDPEALKEAVKAAEKVVREQPGSNLAKKALEIILRAAAALANLPDPESRKEADKAADKVRREQPGSELAVVAAIISAVARMGVKMELHPSGNEVKVVIKGLHIKQQRQLYRDVREAAKKAGVEVEIEVEGDTVTIVVRGGGSWGLEHHHHHH
notes: Component of the two-component C4 ring (four copies of each in the ring); also called 29B_53_101A
[5]
  binding result: no binding

B5: RingB (designed binder)
chain: GTWQWVLINISEEARQLIEKAVRAISKKEGTEVHFEKDDGVLHIRVKNLHEKRAREIHKVAKLILEVAAAERIVRERPGSNLAKKALEIILRAAEELAKADVDAALEAAVRAAEKVVREQPGSNLAKKAMEIILRAAEELAKLPDPEAQKEAAKAIARRVAAKVEELKRSGTSEDEIAEEVAREISEVIRTLKESGSSYEVICECVARIVAEIVEALKRSGTSEDEIAEIVARVISEVIRTLKESGSSYEVICECVARIVAEIVEALKRSGTSEEEIAEIVARVIQEVIRTLKESGSSYEVIRECLRRILEEVIEALKRSGVDSSEIVLIIIKIAVAVMGVTMEEHRSGNEVKVVIKGLHESQQEELLELVLRAAELAGVRVRIRFKGDTVTIVVRGGGSLEHHHHHH
notes: Component of the two-component C4 ring (four copies of each in the ring); also called 29A_53_4_101B
[5]
  binding result: no binding

B6: LHD29 chainB (designed binder)
chain: SSIFLLSNVSEEARQRAEEYVRRISKKEGTEVRFEKDDGFLTIEVKNLSEERLREIAEYLWRVAV
notes: also called LHD29B; 29B
[6]
  binding result: binds
